Laboratory results reported in paper PMC4999191.

Biological target: calmodulin (CaM agarose beads) (UniProt P62157)
Experiment: pull-down with CaM-agarose beads, immunoblot (band quantification printed under the lanes)
Conditions: parent: 100

percent of parent | Substance
29 | PC1-p30, soluble polycystin-1 cytoplasmic tail L4137P
116 | PC1-p30, soluble polycystin-1 cytoplasmic tail R4150C
